Experimental data reported in paper PMC11879086, “Identification and characterization of a human MORC2 DNA binding region that is required for gene silencing” (Nucleic Acids Research, 2024).

What was measured:
MORC2 subset C = molecular target: T1, MORC2 subset C (Homo sapiens, UniProt Q9Y6X9 1-1032, R754D;R755D;K756D;R758D;K760D;R761D); experiment: fluorescence anisotropy; apo; FA/EMSA: 50 mM NaCl, 3 mM MgCl2, 20 mM Na-HEPES pH 7.4, 1 mM TCEP, 10% glycerol, 0.025 mM ZnCl2, 50 ug/ml BSA, room temperature; 1 nM nucleic acid (FA) or 20 nM DNA (EMSA); conditions: protein: recombinant; tags: tag removed by TEV; chain copies: 2; label: 5'-6-FAM; blunt
T1 sequence: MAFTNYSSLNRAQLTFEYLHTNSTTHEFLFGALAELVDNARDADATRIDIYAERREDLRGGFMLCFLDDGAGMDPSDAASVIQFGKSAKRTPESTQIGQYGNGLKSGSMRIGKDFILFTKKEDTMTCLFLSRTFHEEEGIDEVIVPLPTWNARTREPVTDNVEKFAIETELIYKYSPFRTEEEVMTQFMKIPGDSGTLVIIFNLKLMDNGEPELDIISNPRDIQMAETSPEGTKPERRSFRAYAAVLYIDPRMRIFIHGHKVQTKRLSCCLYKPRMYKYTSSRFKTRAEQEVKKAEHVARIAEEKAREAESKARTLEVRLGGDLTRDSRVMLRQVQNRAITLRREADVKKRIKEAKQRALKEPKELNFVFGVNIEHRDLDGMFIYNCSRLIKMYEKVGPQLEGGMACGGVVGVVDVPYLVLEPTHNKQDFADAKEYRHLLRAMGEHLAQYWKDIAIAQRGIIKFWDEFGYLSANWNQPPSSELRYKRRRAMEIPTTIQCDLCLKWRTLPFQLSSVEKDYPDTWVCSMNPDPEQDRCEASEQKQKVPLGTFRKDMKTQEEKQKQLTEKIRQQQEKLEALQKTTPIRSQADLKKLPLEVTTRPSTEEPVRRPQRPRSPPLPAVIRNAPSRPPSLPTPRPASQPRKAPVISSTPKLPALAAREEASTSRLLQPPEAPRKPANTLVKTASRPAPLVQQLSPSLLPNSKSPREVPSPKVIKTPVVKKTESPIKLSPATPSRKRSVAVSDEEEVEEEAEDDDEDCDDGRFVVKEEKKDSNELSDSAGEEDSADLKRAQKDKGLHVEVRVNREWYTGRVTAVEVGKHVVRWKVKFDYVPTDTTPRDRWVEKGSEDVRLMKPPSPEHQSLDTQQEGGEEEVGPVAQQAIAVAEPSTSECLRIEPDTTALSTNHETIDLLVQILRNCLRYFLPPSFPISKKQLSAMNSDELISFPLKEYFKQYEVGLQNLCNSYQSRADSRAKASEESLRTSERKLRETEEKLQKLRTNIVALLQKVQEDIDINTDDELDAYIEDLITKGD

MORC2 1-603 = molecular target: T2, MORC2 1-603 (Homo sapiens, UniProt Q9Y6X9 1-603); experiment: as above; conditions: protein: recombinant; tags: tag removed by TEV; label: 5'-6-FAM; blunt
T2 sequence: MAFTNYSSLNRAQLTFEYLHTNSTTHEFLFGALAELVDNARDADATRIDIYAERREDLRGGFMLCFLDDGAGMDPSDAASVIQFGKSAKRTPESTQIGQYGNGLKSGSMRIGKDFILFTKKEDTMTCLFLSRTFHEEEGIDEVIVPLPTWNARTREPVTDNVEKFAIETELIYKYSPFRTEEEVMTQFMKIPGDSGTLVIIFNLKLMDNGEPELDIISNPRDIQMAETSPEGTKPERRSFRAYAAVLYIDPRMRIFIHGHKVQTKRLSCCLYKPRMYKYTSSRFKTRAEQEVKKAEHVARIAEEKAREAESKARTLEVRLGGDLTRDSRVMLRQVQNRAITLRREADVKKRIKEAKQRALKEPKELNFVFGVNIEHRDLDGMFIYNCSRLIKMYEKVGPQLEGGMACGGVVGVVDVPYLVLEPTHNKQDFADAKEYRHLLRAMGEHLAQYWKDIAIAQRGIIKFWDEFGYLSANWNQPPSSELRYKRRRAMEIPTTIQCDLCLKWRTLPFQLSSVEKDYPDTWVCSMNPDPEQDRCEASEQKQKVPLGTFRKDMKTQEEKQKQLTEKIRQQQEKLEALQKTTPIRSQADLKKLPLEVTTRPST

B1: Random 35mer dsDNA (dsDNA)
DNA 1: ATAGGGTCCATCAGAATTCGGATGAACTCGGTGTG
DNA 2: CACACCGAGTTCATCCGAATTCTGATGGACCCTAT
- Kd (MORC2 subset C): 60 ± 20 nM
- Kd (MORC2 1-603): 446 ± 119 nM
